Laboratory results as given in the nanobody polyreactivity screen of Harvey et al. (2022).

Experiment: yeast display, Sf9 membrane polyspecificity reagent, FACS + sequencing; frameworks hold sequencing errors
Procedure, shortened: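 Using colony PCR, genes from sorted yeast display clones were amplified, then sequenced on MiSeq at 2 × 250 and filtered by CDR length. The clones had been stained with 10% biotinylated, detergent-solubilized Sf9 membrane reagent for 1 hour at 4 °C and sorted by FACS into low and high (top ~1%) gates on anti-HA and streptavidin fluorescence. Polyreactivity labels come from the gate of origin.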

With “QFQLVEAGGGLVQAGGSLRLSCAASGRIFTYYAMGWYSQAPGKERELVAAITGSGGSTYYADSVKGRFTISRDNAKTTVYLQMISLKPEDTAVYYCARTDRRLGAHQGDYWGQGTQVTVSS” as the sequence, how does the “polyreactivity (PSR sort gate)” value read?
The value was “high polyreactivity”.

For “QFQLVESGGGLDQAGGSLRLSCAASGLTFYGYAMGWYRQAPGKERELVAAITWGGGSTYYADSVKGRFTISRDKAKNTVYLQMNSLKPEETEVYYCNADYYLPAIRYDYWGQGTKVTVSS”, which “polyreactivity (PSR sort gate)” value is on record?
The value was “low polyreactivity”.

With “QFQLVESGGGLDQAGGSLRLSCAASGRIFDGYVMGWYRQAPGKDRELVAAISSSGGRTYYADSVKGRFTISRDNAKNTVYLQMNCLKPDDTAVYYCAARYGRYRSVDYWGQGTQVTVSS” as the sequence, how does the “polyreactivity (PSR sort gate)” value read?
The value was “high polyreactivity”.

For “QFQLVESGGGLDQAGGSLRLSCAASGRTFCNNAMGSYRQAAGKETELFAAISVLGGSTYYADSVKGRFTISRDNAKYTVFLQMNSLKPEDTAVYYCATRSRGWIAPPWQGSDGLYYWGQGTQVTVSS”, which “polyreactivity (PSR sort gate)” value is on record?
The value was “low polyreactivity”.

With “QFQLVESGGGLFQAGGSLRLICAASGSNFGGNTMSWYRHAPGKERDLVAAISRSGTRTYYADSVKGRFTISRDTAKNTVYLQMKSLKPVATAVYYCNAKKVLPPPYDYWGQGTQVTVST” as the sequence, how does the “polyreactivity (PSR sort gate)” value read?
Its value is “high polyreactivity”.

Which “polyreactivity (PSR sort gate)” value does the source give for “QFQLVESGGGLVHAGGSLRLSCASSGSIFVVYAMGWYRQAPGKEREFVASIRTGGSTNYADSVKGRFTISRDNAKNTVYLQMNSLKPEDTAVYYCAAASWNSNRHYYVARYYYWGQGTQVTVSS” here?
Its value is “high polyreactivity”.

Which “polyreactivity (PSR sort gate)” value does the source give for “QFQLVESGGGLVQAGASLRLSCAASGNIFPAYAMGWYRQAPGKERELVATISRRGGGTYYADSVKGRFTISRDNAKNTVYLQMNSLKQEDTAVYYCNVAGWTSAYDYWGQGTQVTVSS” here?
The value was “low polyreactivity”.

Which “polyreactivity (PSR sort gate)” value does the source give for “QFQLVESGGGLVQAGASLRLSSAASGSTFVFYAMGWYRQAPGKERELVATISTGVSTYADSVKGRFTISRDNAKNTVYLQMNSLKPEDTAVYYCAADSLFGHYDYSGQGTQVTVSS” here?
The value was “low polyreactivity”.

With “QFQLVESGGGLVQAGGILRLSCAASGSTFCVYAMGWYRQAPGKERELVATINSGGSTNYADSVKGRFTISRDNAKNTVYLQMNSLKPEDTAVYYCAAGPFWQDFYVYEYDYWGQGTQVTVSS” as the sequence, how does the “polyreactivity (PSR sort gate)” value read?
Its value is “low polyreactivity”.

With “QFQLVESGGGLVQAGGSLLLSCAASGSIFAPYDMGWYRQEPGKERELVAAISSSGGSTYYEDSVKGRFTISRDNSKNTVYLHMNSQKPEDTAVYYCDPEPYHGLYDYSGQGTQVTVSS” as the sequence, how does the “polyreactivity (PSR sort gate)” value read?
The value was “low polyreactivity”.

With “QFQLVESGGGLVQAGGSLRISCAASGSIFLFYAMGWYRKAPGKERELVAAIDQSGGSTYYADSVKGRFTFSRDNAKKTVYFQMNSLKPEDTAVYYSAAVHSLYWLGDDTYGYDYWGQGTQVTVSS” as the sequence, how does the “polyreactivity (PSR sort gate)” value read?
Its value is “low polyreactivity”.

With “QFQLVESGGGLVQAGGSLRLSCAASALIFTPNAMGSYIPAPGKESELVAAISSSGRTSYADSVKGRFTISRDNAKNAVYLQMNSLKPEDTAVYYSNATWRWTRRGYVYWGQGTQVTLSS” as the sequence, how does the “polyreactivity (PSR sort gate)” value read?
The value was “low polyreactivity”.

Which “polyreactivity (PSR sort gate)” value does the source give for “QFQLVESGGGLVQAGGSLRLSCAASGFIDNTMGWYRQAPGKQRELVATISWSDGSTYYADSVKGRFTISRDNAKITVYLLMNSLKPEDTAVYYCAATTDALVGRPRYDYWGQGTQVTVSS” here?
The value was “low polyreactivity”.

For “QFQLVESGGGLVQAGGSLRLSCAASGFIFGYNAMGWYRQAPGKERELVAAINWSGDITYYADSVKGRFTISRDNAKNTVYLQMNSLKPEDTAVYYCAADDYYIPSSWDFDYWGQGTQVTVSS”, which “polyreactivity (PSR sort gate)” value is on record?
Its value is “low polyreactivity”.

Which “polyreactivity (PSR sort gate)” value does the source give for “QFQLVESGGGLVQAGGSLRLSCAASGFIFYRNAMGGYRQAPGKERELVAGITSGGRPYYADSVKGRFTISRDNAKNTVYLQMNCLKPEDTGVYYCAARRSRPTYYSTGVNYWGQGTQVTVSS” here?
Its value is “high polyreactivity”.

For “QFQLVESGGGLVQAGGSLRLSCAASGFIIEYNTMGWYRQAPGKERELVAAISFIGGRTYYADSVKGRFTISRDNAKNTVYLQMNSMKPEDNAVYYCKTRDGGYYCGARRVLYYYWGQGTQVTLSS”, which “polyreactivity (PSR sort gate)” value is on record?
Its value is “high polyreactivity”.

With “QFQLVESGGGLVQAGGSLRLSCAASGFTFIKYAMGWYRQAPGKEREFVATISWNGGNTYYADSVKGRFTISRDNAKNTVYLQMNSLKPEDTAVYYCAARRRAFGSTYNYWGQGTQVTVSS” as the sequence, how does the “polyreactivity (PSR sort gate)” value read?
The value was “high polyreactivity”.

With “QFQLVESGGGLVQAGGSLRLSCAASGFTFPRYAMGWYRQAPGKERELVAAITSGDRTYYADSVKGRFTISRDNAKNTVYLQMNSLKPEDTAVYYCAKSSPRKSSQKHSFYEYNYWGQGTQVSVSS” as the sequence, how does the “polyreactivity (PSR sort gate)” value read?
The value was “high polyreactivity”.

Which “polyreactivity (PSR sort gate)” value does the source give for “QFQLVESGGGLVQAGGSLRLSCAASGFTFRRVTAIGWYRQAPGKERELVAGINSGDITYYADSVKGRFTFSRDNAKNTVYLQMNSLIPEDTAVYYCAARVVYGYGHNDYWGQGTQVTVSS” here?
The value was “low polyreactivity”.

For “QFQLVESGGGLVQAGGSLRLSCAASGFTFYRNAMGWYRQAPGKERELVAAITSTGSTNYADSVKGRFTISRDNAKNTVYLQMNSLKPEDTAVYYCNKRRFGRQGMDYWGQGTQVTVSS”, which “polyreactivity (PSR sort gate)” value is on record?
Its value is “low polyreactivity”.

Which “polyreactivity (PSR sort gate)” value does the source give for “QFQLVESGGGLVQAGGSLRLSCAASGGILYRYAMGWYRPAPGKERELVAAIRWSGGSTYYADSVKGRFTISRDNAKNTVYLQMNSLKPEDTAVYYCAADVYYYHVLDFDYWGQGTQVTVSS” here?
The value was “low polyreactivity”.

Which “polyreactivity (PSR sort gate)” value does the source give for “QFQLVESGGGLVQAGGSLRLSCAASGIIFAGNAMGWYRQAPGKERELVAVITSVGSTYYADSVTGRFTISRDNAKNTVYLQMNSLKPEDTAVYYCNAVSWWRYDYCGQGTQVTVSS” here?
The value was “high polyreactivity”.

Which “polyreactivity (PSR sort gate)” value does the source give for “QFQLVESGGGLVQAGGSLRLSCAASGLIFAYYAMGWYRQAPGKERELVAAISWTGGSTYYADSVKGRFTISRDNAKNTVYLQMNSLKPEDTAVYYCNTVGKPGFYSWGQGTQVTVSS” here?
The value was “high polyreactivity”.

Which “polyreactivity (PSR sort gate)” value does the source give for “QFQLVESGGGLVQAGGSLRLSCAASGLIFGAYDMGWYRQAPGKERELVAAITYSGGRTHYADSVKGRFTISRDNAKNTVYLQMNSLKPDDTAVYYCAAGSSHHFDYEGGYWGKGTQVTVSS” here?
Its value is “low polyreactivity”.

Which “polyreactivity (PSR sort gate)” value does the source give for “QFQLVESGGGLVQAGGSLRLSCAASGLIFRIYAMGWYRQAPGKEREFVAAIRWRGGSTYYADSVKGRFTISRDNAKYTVYLQMNSLKPEDTAVYYCAVRSCPYRPRLDYWGQGTQVTVSS” here?
The value was “high polyreactivity”.

For “QFQLVESGGGLVQAGGSLRLSCAASGLILQNYVMGWYRQAPGKERELVAAITRSGGGTYYADSVKGRFTISRDNAKNTVYLQMNSLKPEDTAVYYCAAQRQYGKFDYWGQGTQVTVSS”, which “polyreactivity (PSR sort gate)” value is on record?
Its value is “high polyreactivity”.

Which “polyreactivity (PSR sort gate)” value does the source give for “QFQLVESGGGLVQAGGSLRLSCAASGLTFGYYAMGWYRQAPGKERELVAAITSRGGSTYYADSVKRRFTISRDNAKNTVYLQMNSLKPEDTAVYYCAARYAEYGSWGQGTQVTVSS” here?
Its value is “high polyreactivity”.

Which “polyreactivity (PSR sort gate)” value does the source give for “QFQLVESGGGLVQAGGSLRLSCAASGRIFHSNAMGWYRQAPGKERELVAAITWSTGRTYYADSVKGRFTISRDNAKNTVYLQMNSLKPEDTAVYYCFRFSYYTGDYWGQGTQVTVSS” here?
The value was “high polyreactivity”.

Which “polyreactivity (PSR sort gate)” value does the source give for “QFQLVESGGGLVQAGGSLRLSCAASGRIFVGYAMGSYRQAPGKEMELVATISSRGGSTYYADSVKGRFTISRDNAKNTLYLQMNSLKPEDTAVYYCAAVARNNRNSRQRIPYDFWGQGTQVTVSS” here?
Its value is “high polyreactivity”.

With “QFQLVESGGGLVQAGGSLRLSCAASGRIFYKYVMGWYRQAPGKERELVAAINLSGGTTYYADSVKGRFTISRDNAKNTVYLQMNSLKPEDTAVYYCAADSFTLTHYYWGQGTQVTVSS” as the sequence, how does the “polyreactivity (PSR sort gate)” value read?
Its value is “low polyreactivity”.

With “QFQLVESGGGLVQAGGSLRLSCAASGRIFYRNAMGWYRQAPGKERELVAAINQTGGSTYYADSVKGRFTISGDNAKNTVYLQMNSLKPDDTAVYYCAVLGQVPTGSSRRYYWGQGTQVTVSS” as the sequence, how does the “polyreactivity (PSR sort gate)” value read?
The value was “high polyreactivity”.

With “QFQLVESGGGLVQAGGSLRLSCAASGRIFYVYGMGWYRQAPGKERELVAAISKRGDNTYYADSVKGRFTISRDNAKNTVYLQMNSLKPEDTAVYYCNVKRYGGRSDYWGQGTQVTVSS” as the sequence, how does the “polyreactivity (PSR sort gate)” value read?
Its value is “high polyreactivity”.

For “QFQLVESGGGLVQAGGSLRLSCAASGRIFYYNAMGWYRQAPGKERELVAAITGGGSTNYADSVKGRFTISRDNAKNTVYLQMNSLKPEDTAVYYCAARHYPRNSWGYDYWGQGTQVTVSS”, which “polyreactivity (PSR sort gate)” value is on record?
Its value is “high polyreactivity”.

With “QFQLVESGGGLVQAGGSLRLSCAASGRTFIGYAMGWYRQAPGKERELVAAITSDGGTNYADSVKGRFTISRDNAKNTVNLQMNSQKPEDTAVYYCGARRRVSYHLYGYWGQGTQVTLSS” as the sequence, how does the “polyreactivity (PSR sort gate)” value read?
The value was “high polyreactivity”.

Which “polyreactivity (PSR sort gate)” value does the source give for “QFQLVESGGGLVQAGGSLRLSCAASGRTFKVYAMGCYRQAPGKERELVAAITGGGSTNYADSVKGRFTISRDNAKNTVYLQMNSLKAEDTAVYYCNARYYYRLVKWSRFSSYDFWGQGTQVTVSS” here?
Its value is “low polyreactivity”.

For “QFQLVESGGGLVQAGGSLRLSCAASGRTFYLYAMGWYRQAPGKERELVASISWNGGSTYYADSVKGLFTISRDNAKNYVYLQMNSLKPEDTAVYYCATDSHRSRLNRPYQLFPAYYYWGQGTQVTVSS”, which “polyreactivity (PSR sort gate)” value is on record?
Its value is “low polyreactivity”.

For “QFQLVESGGGLVQAGGSLRLSCAASGSFSGTNAMGWYRQAPGKERELVAGISYGGGSTYYADSVKGRFTISRDNAKNTVYLQMNSLKPEDTAVYYCAKYYAPYRFYYCGQGTQVTVSS”, which “polyreactivity (PSR sort gate)” value is on record?
Its value is “high polyreactivity”.

For “QFQLVESGGGLVQAGGSLRLSCAASGSICVLYPMGWYRQAPGKERELVAAITSGASTNYADSVKGRFTISRDNAKNTVYLQMNSQKPEDTAVYYCNTGSRLDRVDSWGQGTQLTVSS”, which “polyreactivity (PSR sort gate)” value is on record?
Its value is “low polyreactivity”.

With “QFQLVESGGGLVQAGGSLRLSCAASGSIFEPNAMGWYRQAPGKEREFVAAISGSGGSTYYADSVKGRFTISRDNAKNTVYLQMNSLIQEDTAVYYCATRGKRSYFRTFYYWGQGTQVTVSS” as the sequence, how does the “polyreactivity (PSR sort gate)” value read?
Its value is “high polyreactivity”.

For “QFQLVESGGGLVQAGGSLRLSCAASGSIFGPYAMGWYRQAPGKEREFVAAISRSGTRTNFADSVKGSFTISRDSAKNTVYLQMNSLKPEDTAVYYCATAAFIVGTSRTYDYWGQGTQVTVSS”, which “polyreactivity (PSR sort gate)” value is on record?
The value was “high polyreactivity”.

Which “polyreactivity (PSR sort gate)” value does the source give for “QFQLVESGGGLVQAGGSLRLSCAASGSIFGYYAMGWYRQAPGKESELVAAISASGGTTYYADSVKGRFTISRDYAKNTVYLQMNSLKPEDTAVYYCNKLYLKPGRYYYWGQGTQVTVSS” here?
The value was “high polyreactivity”.

With “QFQLVESGGGLVQAGGSLRLSCAASGSIFPPYVMGCYRQAPGKERELVATIDSGGSTYYADSVKGRFTISRDNAKNPVYLQINSLKPEDTAVYYCAARQVSVSVHQYGYWGQGTQVTVST” as the sequence, how does the “polyreactivity (PSR sort gate)” value read?
Its value is “low polyreactivity”.

Which “polyreactivity (PSR sort gate)” value does the source give for “QFQLVESGGGLVQAGGSLRLSCAASGSIIPIYAMGWYRQAPGKERELVAAINRSGGSTYYADSVKGRFTISRDNAKNTVYLQMNSLKPEDTAVYYCNADYGYHNQLFWGYYGWSSDHWGQGTQVTVSS” here?
The value was “low polyreactivity”.
